Assay results: US20230391852A1 (US Dept. of Health and Human Services, published 2023)
Where “and” joins values, the source holds several entries; their conditions need not be identical. Equal values may be shown once.

Experiments:
SARS-CoV S1 = biological target: T1, SARS-CoV S1 (SARS-CoV, UniProt P59594 14-667); experiment: ELISA, 1 µg/ml coated antigen, 1 µg/ml VHH-hFc
T1 construct: domain: S1; also called SARS-CoV S1 protein

RBD-mFc [1] = biological target: T2, RBD-mFc (SARS-CoV-2, UniProt P0DTC2 319-541)
[2] = biological target: SARS-CoV-2 spike on pseudovirus (SARS-CoV-2, UniProt P0DTC2 14-1273); experiment: cell-based or functional assay
BSA = biological target: T3, BSA (UniProt P02769 25-607); experiment: ELISA, 1 µg/ml coated BSA, 1 µg/ml VHH-hFc
T3 construct: also called control protein
T3 sequence (P02769 25-607 limits assumed): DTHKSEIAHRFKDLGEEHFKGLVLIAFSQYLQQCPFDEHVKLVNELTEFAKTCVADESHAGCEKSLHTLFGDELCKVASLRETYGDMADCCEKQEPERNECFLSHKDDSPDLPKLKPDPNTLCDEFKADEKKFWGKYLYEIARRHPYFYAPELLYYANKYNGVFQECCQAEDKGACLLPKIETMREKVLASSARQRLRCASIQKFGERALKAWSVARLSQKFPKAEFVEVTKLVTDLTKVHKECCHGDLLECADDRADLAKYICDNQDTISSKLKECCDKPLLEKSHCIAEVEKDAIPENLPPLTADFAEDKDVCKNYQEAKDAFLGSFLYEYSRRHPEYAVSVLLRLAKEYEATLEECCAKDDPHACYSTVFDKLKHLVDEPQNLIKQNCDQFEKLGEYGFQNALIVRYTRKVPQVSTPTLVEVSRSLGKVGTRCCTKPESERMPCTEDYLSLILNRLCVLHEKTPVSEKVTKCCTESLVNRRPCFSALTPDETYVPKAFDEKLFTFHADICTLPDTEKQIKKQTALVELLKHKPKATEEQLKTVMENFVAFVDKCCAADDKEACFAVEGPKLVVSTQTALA

[3] = biological target: T4, SARS-CoV S protein trimer expressed on human A431 cells (SARS-CoV, UniProt P59594 14-1255); experiment: flow cytometry on A431 cells expressing SARS-CoV S (A431-CoV-S)
T4 construct: whole, on cells; also called S protein of SARS-CoV

RBD-mFc [4] = biological target: T2, RBD-mFc; remark: listed apart in the source
SARS-CoV-2 RBD = SARS-CoV-2 RBD (SARS-CoV-2, UniProt P0DTC2 319-541); experiment: monoclonal phage ELISA, drawn table of OD450 values
SARS-CoV-2 S trimer = biological target: T5, SARS-CoV-2 S trimer (SARS-CoV-2, UniProt P0DTC2 16-1213); experiment: as above
T5 construct: also called SARS-CoV-2 S protein; S homotrimer protein

[5] = biological target: T4, SARS-CoV S protein trimer expressed on …; experiment: flow cytometry on A431 cells expressing SARS-CoV S protein trimer (FIG. 3B)

B1: 1H6 VHH-hFc (Fc fusion)
chain: AVQLVDSGGGSVQAGGSLNLSCVASGTTLRNGCMAWFRQVPGKEREVVAIIIRATSYTDYADSVKGRFTISQDNAKNTVYLQMKSLTPEDTATYYCAATLYRVNCAKREFDKWGQGTQVTVSS
notes: also called 1H6-hFc; NCI-CoV-1H6 VHH-hFc fusion protein
- binding result (SARS-CoV S1): no binding (tested: 1 µg/ml)
- Kd (SARS-CoV-2): 37 nM

B2: 1B5 VHH-hFc (Fc fusion)
chain: DVQLVESGGGSVQAGGSLRLSCTGSRYTYSTYCMGWFRQAPGKEEEAVAIINSGGGEPYYGDSVKGRFTISQDRAKNTVYLQMDGLQPDDTAIYYCVAADSHNSRCYLGRSYVNYWGQGTQVTVSS
notes: also called 1B5-hFc; NCI-CoV-1B5 VHH-hFc fusion protein
- IC50 (read off the curve) (RBD-mFc [1]): ~0.3 mg/L
- IC50, SARS-CoV-2 spike pseudovirus neutralization on HEK 293T-hACE2 cells [2]: 6.6 nM and 0.55 µg/ml
- IC50, SARS-CoV-2 spike pseudovirus neutralization, repeated assay (FIGS. 9A-9F) [2]: 7.6 nM
- binding result (BSA): no binding (tested: 1 µg/ml)
- percent of cells right of the dashed gate line [3]: 98.3%
- Kd (SARS-CoV-2): 0.1 nM
- IC50 (RBD-mFc [4]): < 0.001 mg/L

B3: 7A3 VHH-hFc (Fc fusion)
chain: QVQLVESGGGSVQPGGSLRLSCVVSGYTSSSRYMGWFRQVPGKGLEWVSGIKRDGTNTYYADSVKGRFTISQDNAKNTVYLQMNSLKPEDTAMYYCAAGSWYNQWGYSMDYWGKGTQVTVSS
notes: also called 7A3-hFc; NCI-CoV-7A3 VHH-hFc fusion protein
- percent of cells right of the dashed gate line [3]: 92.1%
- Kd (SARS-CoV-2): 0.2 nM

B4: NCI-CoV-7E7 (VHH)
VHH: AVQLVDSGGGSVQSGGSLRLSCVASGYTYSIYNMGWFRQAPGKGLEWVSGINSDGSNTYYADSVKGRFTISRDNAKNTLYLQMNSLKSEDTALYYCATLPICSGGYCPPGYWGQGTQVTVSS
- OD450 (SARS-CoV-2 RBD): 1
- OD450 (SARS-CoV-2 S trimer): 0.57

B5: 8A2 VHH-hFc (Fc fusion)
chain: AVQLVDSGGGSVQAGGSLRLSCAASGYTYSICTMGWYRQAPGEGLEWVSGINADGSNTHYTDSVKGRFTISRDNAKKTLYLQMNSLKPEDTAIYYCAAHGTYDKYAPCGGFAGTYTYWGQGTQVTVSS
notes: also called NCI-CoV-8A2 VHH-hFc
- binding result [5]: no binding
- percent of cells right of the dashed gate line [3]: 59.2%
- Kd (SARS-CoV-2): 0.26 nM
